In patent US20040265295:

How the values were obtained:
[1] = test system: His-PIPKIγ661 C-terminus, wild-type (439-661)
[2] = test system: His-PIPKIγ661 C-terminus (439-661) Tyr644/649 to Phe mutant
[3] = test system: His-PIPKIγ661 C-terminus (439-661) Tyr649 to Phe mutant
[4] = test system: His-PIPKIγ661 C-terminus (439-661) Tyr644 to Phe mutant
His-PIPKIγ661 C-terminus (439-661) Tyr644 to Phe mutant, sequence (chain, as listed by the source mutant): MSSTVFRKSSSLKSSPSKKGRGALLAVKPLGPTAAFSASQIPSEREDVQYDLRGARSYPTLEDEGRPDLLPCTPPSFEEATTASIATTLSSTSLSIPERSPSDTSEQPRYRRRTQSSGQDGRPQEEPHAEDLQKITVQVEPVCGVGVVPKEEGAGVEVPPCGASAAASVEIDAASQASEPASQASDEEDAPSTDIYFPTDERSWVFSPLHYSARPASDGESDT

His-PIPKIγ661 C-terminus, wild-type (439-661), sequence (chain, as listed by the source): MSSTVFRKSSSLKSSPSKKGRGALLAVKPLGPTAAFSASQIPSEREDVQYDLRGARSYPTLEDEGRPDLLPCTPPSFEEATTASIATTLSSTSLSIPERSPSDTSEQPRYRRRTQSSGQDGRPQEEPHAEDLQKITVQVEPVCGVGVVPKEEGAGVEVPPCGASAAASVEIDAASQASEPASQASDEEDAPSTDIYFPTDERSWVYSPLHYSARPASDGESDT
His-PIPKIγ661 C-terminus (439-661) Tyr644/649 to Phe mutant, sequence (chain, as listed by the source mutant): as the sequence (chain, as listed by the source) above, with Y206F, Y211F counted along it
His-PIPKIγ661 C-terminus (439-661) Tyr649 to Phe mutant, sequence (chain, as listed by the source mutant): as the sequence (chain, as listed by the source) above, with Y211F counted along it

c-SrcTyr527Phe
in vitro kinase assay, phosphorylation of the recombinant substrate [1]: c-Src directly phosphorylated recombinant PIPKIγ661 tail
in vitro kinase assay, phosphorylation of the recombinant substrate [2]: not efficiently phosphorylated by c-Src in vitro compared with wild-type
in vitro kinase assay, phosphorylation of the recombinant substrate [3]: PIPKIγTyr^649->Phe is efficiently phosphorylated by c-Src
in vitro kinase assay, phosphorylation of the recombinant substrate [4]: not efficiently phosphorylated by c-Src in vitro compared with wild-type
